Test results as given in patent US20090181027A1 (published 2009).

T1: human p40 single mutant L40T (human, UniProt P29460 23-328)
T1 construct: Transiently expressed in HEK293E cells; supernatant used
T1 sequence: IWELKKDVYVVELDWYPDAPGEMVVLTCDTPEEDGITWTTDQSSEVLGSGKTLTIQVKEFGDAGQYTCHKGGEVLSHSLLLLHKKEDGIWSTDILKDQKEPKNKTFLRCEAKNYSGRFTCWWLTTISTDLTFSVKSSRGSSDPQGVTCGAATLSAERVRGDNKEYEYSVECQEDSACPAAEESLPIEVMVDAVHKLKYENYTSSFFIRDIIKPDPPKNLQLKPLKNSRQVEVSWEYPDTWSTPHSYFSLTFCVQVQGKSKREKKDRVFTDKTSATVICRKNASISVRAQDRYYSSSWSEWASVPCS

T2: human p40 single mutant E45A (human, UniProt P29460 23-328)
T2 construct: Transiently expressed in HEK293E cells; supernatant used
T2 sequence: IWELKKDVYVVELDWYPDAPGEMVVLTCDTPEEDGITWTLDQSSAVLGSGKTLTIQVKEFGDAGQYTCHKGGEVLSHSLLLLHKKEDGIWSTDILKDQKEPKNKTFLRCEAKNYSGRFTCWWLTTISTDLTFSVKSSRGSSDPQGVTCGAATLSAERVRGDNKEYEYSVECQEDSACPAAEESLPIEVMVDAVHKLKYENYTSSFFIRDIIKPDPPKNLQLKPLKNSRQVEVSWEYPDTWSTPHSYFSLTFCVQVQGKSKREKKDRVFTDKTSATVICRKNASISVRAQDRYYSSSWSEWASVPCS

T3: human p40 single mutant S43R (human, UniProt P29460 23-328)
T3 construct: Transiently expressed in HEK293E cells; supernatant used
T3 sequence: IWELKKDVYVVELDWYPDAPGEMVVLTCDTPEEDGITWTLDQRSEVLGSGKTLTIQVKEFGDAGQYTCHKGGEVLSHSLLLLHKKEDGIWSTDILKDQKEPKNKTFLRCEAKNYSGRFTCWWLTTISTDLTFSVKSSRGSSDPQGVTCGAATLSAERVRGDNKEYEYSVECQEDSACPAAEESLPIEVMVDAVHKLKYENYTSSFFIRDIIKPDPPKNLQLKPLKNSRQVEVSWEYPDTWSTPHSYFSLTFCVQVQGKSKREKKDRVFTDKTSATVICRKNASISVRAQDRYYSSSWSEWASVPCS

T4: human p40 single mutant M23T (human, UniProt P29460 23-328)
T4 construct: Transiently expressed in HEK293E cells; supernatant used
T4 sequence: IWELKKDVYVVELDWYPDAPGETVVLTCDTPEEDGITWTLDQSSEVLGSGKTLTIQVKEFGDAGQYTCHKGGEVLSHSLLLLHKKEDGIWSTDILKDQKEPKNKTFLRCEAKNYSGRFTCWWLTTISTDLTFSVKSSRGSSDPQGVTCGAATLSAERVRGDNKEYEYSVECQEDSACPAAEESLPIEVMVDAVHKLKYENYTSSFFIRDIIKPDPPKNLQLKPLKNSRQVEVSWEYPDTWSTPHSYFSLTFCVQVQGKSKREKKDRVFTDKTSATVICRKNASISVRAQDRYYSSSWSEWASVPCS


Tests used:
[1] = target: IL-12 (mouse; target of the rat anti-mouse mAbs C17.8 and C18.2) (mouse) (UniProt P43432); experiment: cell-based or functional assay
Sequence of IL-12 (mouse; target of the rat anti-mouse mAbs C17.8 and C18.2) (mouse) (P43432 23-335 limits assumed, chain 1 of 2): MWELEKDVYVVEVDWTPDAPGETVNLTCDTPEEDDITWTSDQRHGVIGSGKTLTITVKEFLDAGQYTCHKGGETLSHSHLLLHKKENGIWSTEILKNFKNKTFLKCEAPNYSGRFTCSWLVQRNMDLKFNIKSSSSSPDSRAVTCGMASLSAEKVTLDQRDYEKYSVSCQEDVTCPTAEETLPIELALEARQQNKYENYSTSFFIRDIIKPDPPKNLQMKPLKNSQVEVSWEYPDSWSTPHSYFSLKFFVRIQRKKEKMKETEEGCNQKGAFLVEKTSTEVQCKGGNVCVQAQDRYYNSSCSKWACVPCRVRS
Sequence of IL-12 (mouse; target of the rat anti-mouse mAbs C17.8 and C18.2) (mouse) (P43431 23-215 limits assumed, chain 2 of 2, further chain): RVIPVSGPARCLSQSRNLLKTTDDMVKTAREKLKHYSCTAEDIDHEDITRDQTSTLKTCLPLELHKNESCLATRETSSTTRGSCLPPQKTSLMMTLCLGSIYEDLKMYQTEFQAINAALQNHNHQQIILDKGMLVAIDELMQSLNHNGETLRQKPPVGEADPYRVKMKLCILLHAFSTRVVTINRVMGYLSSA

[2] = target: T1, human p40 single mutant L40T; experiment: capture assay, relative binding affinity to p40 muteins (FIG. 4)
Protocol: (§1) Seven human p40 single mutants, M23T, L40T, S43R, E45A, E45R, E59R, and D62R, and two double mutants, S43R/E45A and S43R/E45R, are used in the studies. The wide-type human p40, WT hu-p40, was used as the control. The p40 mutants were transiently expressed in HEK293E cells. The supernatants were used for binding assays.
(§2) In brief, MSD high bind plates (Meso Scale Discovery, MD) were coated with 5 μl of a capture monoclonal antibody (5 μg/ml) at room temperature for 1 hour. […] One-hundred and fifty (150) μl of 5% MSD Blocker A buffer was added to each well and incubated for 1 hr at room temperature. Plates were washed three times with 0.1 M HEPES buffer (pH 7.4). These protein-charged ELISA plates were incubated with 25 μl of different transiently expressed p40 mutant supernatants (1:10 dilution with 0.1 M HEPES buffer, pH 7.4) for 1 hr at room temperature. The plates were washed three times with 0.1 M HEPES buffer (pH 7.4). Twenty-five (25) μl of different concentrations of MSD Sulfo-TAG labeled p40 mAb, ranging from 0 to 20 μg/ml, were dispensed to micro-wells. After incubation for 2 hrs shaking at room temperature, plates were washed 3 times with 0.1 M HEPES buffer (pH 7.4). One hundred and fifty (150) μl of diluted MSD Read Buffer T was dispensed into each well and the plates were analyzed with a SECTOR imager (MSD).

[3] = target: T2, human p40 single mutant E45A; experiment: as above
Protocol: as §1, §2

[4] = target: T3, human p40 single mutant S43R; experiment: as above
Protocol: as §1, §2

[5] = target: T4, human p40 single mutant M23T; experiment: as above
Protocol: as §1, §2

in vitro neutralization of IL-12, relative to the anti-p35 mAb (C18.2) (times (versus anti-p35 mAb)) [1]	reduction of binding [2] [%]	reduction of binding [3] [%]	reduction of binding [4] [%]	reduction of binding [5] [%]	Molecule
5					C17.8 (rat anti-mouse IL-12/IL-23p40, IgG2a) (antibody)
	~40	~70	~40	~40	IL-12/IL-23p40 mAb (fully human monoclonal antibody directed against human IL-12/23p40) (antibody, V domains shown, Whole IgG made in a mammalian cell line and purified on protein A; also called IL-12/23p40 mAb; IL-12p40 antibody) VH: EVQLVQSGAEVKKPGESLKISCKGSGYSFTTYWLGWVRQMPGKGLDWIGIMSPVDSDIRYSPSFQGQVTMSVDKSITTAYLQWNSLKASDTAMYYCARRRPGQGYFDFWGQGTLVTVSS VL: DIQMTQSPSSLSASVGDRVTITCRASQGISSWLAWYQQKPEKAPKSLIYAASSLQSGVPSRFSGSGSGTDFTLTISSLQPEDFATYYCQQYNIYPYTFGQGTKLEIKR
